Experimental data taken from patent publication US20140294898A1 (published 2014).
Positions of bridges follow the written chain, without caps; N, C: chain ends. Non-standard residues stand in square brackets, D forms with d. Bta = N[C@@H](Cc1csc2ccccc12)C(=O)O; NMeNle = CCCC[C@H](NC)C(=O)O; NMeS = CN[C@@H](CO)C(=O)O; NMeA = CN[C@@H](C)C(=O)O; Sar = CNCC(=O)O

Target: T1, hPDL1(19-239)-TVMV-His (human, UniProt Q9NZQ7 19-239)
T1 construct: The construct name says 19-239, the running text says amino acids 18-239; Expressed in HEK293T cells; also called PD-L1-His; PD-L1-TVMV-His
T1 sequence (Q9NZQ7 other isoform, or with tags, fused parts or gaps limits assumed): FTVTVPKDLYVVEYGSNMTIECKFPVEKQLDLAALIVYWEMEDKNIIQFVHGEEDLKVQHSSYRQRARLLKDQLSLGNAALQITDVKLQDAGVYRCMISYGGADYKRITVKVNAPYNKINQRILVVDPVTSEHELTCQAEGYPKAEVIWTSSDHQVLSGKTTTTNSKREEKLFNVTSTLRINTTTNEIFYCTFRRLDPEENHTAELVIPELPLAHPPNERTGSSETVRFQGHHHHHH
Assay: HTRF competition, PD-1-Ig (20 nM) binding to human PD-L1-His (10 nM)
Procedure: All binding studies were performed in an HTRF assay buffer consisting of dPBS supplemented with 0.1% (w/v) bovine serum albumin and 0.05% (v/v) Tween-20. […] PD-L1 fusion proteins from either human, cynomologous macaques, or mouse were used. HTRF detection was achieved using europium crypate-labeled anti-Ig monoclonal antibody (1 nM final) and allophycocyanin (APC) labeled anti-His monoclonal antibody (20 nM final). Antibodies were diluted in HTRF detection buffer and 5 μl was dispensed on top of binding reaction. The reaction was allowed to equilibrate for 30 minutes and signal (665 nm/620 nm ratio) was obtained using an EnVision fluorometer. […]
HTRF Experiments were performed essentially as outlined supra. Variant macrocyclic peptides were created as outlined herein.

B1: Compound No. 56 (peptide)
peptide: {CH2CO}-F[NMeA]NPHL[NMeS]WSW[NMeNle][NMeNle]RCG-NH2
modifications: thioether N-14
SMILES: CCCC[C@H]1C(=O)N(C)[C@@H](CCCC)C(=O)N[C@@H](CCCNC(=N)N)C(=O)N[C@H](C(=O)NCC(N)=O)CSCC(=O)N[C@@H](Cc2ccccc2)C(=O)N(C)[C@@H](C)C(=O)N[C@@H](CC(N)=O)C(=O)N2CCC[C@H]2C(=O)N[C@@H](Cc2c[nH]cn2)C(=O)N[C@@H](CC(C)C)C(=O)N(C)[C@@H](CO)C(=O)N[C@@H](Cc2c[nH]c3ccccc23)C(=O)N[C@@H](CO)C(=O)N[C@@H](Cc2c[nH]c3ccccc23)C(=O)N1C
notes: macrocyclic peptide cyclized via the ClAc moiety with the downstream cysteine
B1 was tested. Which IC50 did it give?
Its IC50 is 13 nM.

B2: Compound No. 61 (peptide)
peptide: {CH2CO}-F[NMeA]NPHL[Sar]WSM[NMeNle][NMeNle]RCG-NH2
modifications: thioether N-14
SMILES: CCCC[C@H]1C(=O)N(C)[C@@H](CCCC)C(=O)N[C@@H](CCCNC(=N)N)C(=O)N[C@H](C(=O)NCC(N)=O)CSCC(=O)N[C@@H](Cc2ccccc2)C(=O)N(C)[C@@H](C)C(=O)N[C@@H](CC(N)=O)C(=O)N2CCC[C@H]2C(=O)N[C@@H](Cc2c[nH]cn2)C(=O)N[C@@H](CC(C)C)C(=O)N(C)CC(=O)N[C@@H](Cc2c[nH]c3ccccc23)C(=O)N[C@@H](CO)C(=O)N[C@@H](CCSC)C(=O)N1C
notes: as for B1
Which IC50 does the source give for B2 here?
The IC50 was 31 nM.

B3: Compound No. 62 (peptide)
peptide: {CH2CO}-F[NMeA]NPHL[Sar]WSI[NMeNle][NMeNle]RCG-NH2
modifications: thioether N-14
SMILES: CCCC[C@H]1C(=O)N(C)[C@@H](CCCC)C(=O)N[C@@H](CCCNC(=N)N)C(=O)N[C@H](C(=O)NCC(N)=O)CSCC(=O)N[C@@H](Cc2ccccc2)C(=O)N(C)[C@@H](C)C(=O)N[C@@H](CC(N)=O)C(=O)N2CCC[C@H]2C(=O)N[C@@H](Cc2c[nH]cn2)C(=O)N[C@@H](CC(C)C)C(=O)N(C)CC(=O)N[C@@H](Cc2c[nH]c3ccccc23)C(=O)N[C@@H](CO)C(=O)N[C@@H]([C@@H](C)CC)C(=O)N1C
notes: as for B1
With B3 as the binder, how does the IC50 read?
The IC50 was 475 nM.

B4: Compound No. 63 (peptide)
peptide: {CH2CO}-F[NMeA]NPHL[Sar]WSL[NMeNle][NMeNle]RCG-NH2
modifications: thioether N-14
SMILES: CCCC[C@H]1C(=O)N(C)[C@@H](CCCC)C(=O)N[C@@H](CCCNC(=N)N)C(=O)N[C@H](C(=O)NCC(N)=O)CSCC(=O)N[C@@H](Cc2ccccc2)C(=O)N(C)[C@@H](C)C(=O)N[C@@H](CC(N)=O)C(=O)N2CCC[C@H]2C(=O)N[C@@H](Cc2c[nH]cn2)C(=O)N[C@@H](CC(C)C)C(=O)N(C)CC(=O)N[C@@H](Cc2c[nH]c3ccccc23)C(=O)N[C@@H](CO)C(=O)N[C@@H](CC(C)C)C(=O)N1C
notes: as for B1
With B4 as the binder, how does the IC50 read?
Its IC50 is 3660 nM.

B5: Compound No. 52 (peptide)
peptide: FANPHLXWSWXXRCG
modifications: N-terminal chloroacetyl (ClAc) on residue 1 cyclized as thioether with Cys14; N-methyl-Ala (mAla) at 2; Dab (2,4-diaminobutyric acid, written X) at 7; N-methyl-norleucine (mNle, written X) at 11 and 12; C-terminal amide (NH2)
notes: as for B1
Which IC50 does the source give for B5 here?
The IC50 was 24 nM.

B6: Compound No. 60 (peptide)
peptide: {CH2CO}-F[NMeA]NPHL[Sar]WAW[NMeNle][NMeNle]ACG-NH2
modifications: thioether N-14
SMILES: CCCC[C@H]1C(=O)N(C)[C@@H](CCCC)C(=O)N[C@@H](C)C(=O)N[C@H](C(=O)NCC(N)=O)CSCC(=O)N[C@@H](Cc2ccccc2)C(=O)N(C)[C@@H](C)C(=O)N[C@@H](CC(N)=O)C(=O)N2CCC[C@H]2C(=O)N[C@@H](Cc2c[nH]cn2)C(=O)N[C@@H](CC(C)C)C(=O)N(C)CC(=O)N[C@@H](Cc2c[nH]c3ccccc23)C(=O)N[C@@H](C)C(=O)N[C@@H](Cc2c[nH]c3ccccc23)C(=O)N1C
notes: as for B1
For B6, which IC50 is on record?
The IC50 was 43 nM.

B7: Compound No. 64 (peptide)
peptide: {CH2CO}-F[NMeA]NPHL[Sar]WS[Bta][NMeNle][NMeNle]RCG-NH2
modifications: thioether N-14
SMILES: CCCC[C@H]1C(=O)N(C)[C@@H](CCCC)C(=O)N[C@@H](CCCNC(=N)N)C(=O)N[C@H](C(=O)NCC(N)=O)CSCC(=O)N[C@@H](Cc2ccccc2)C(=O)N(C)[C@@H](C)C(=O)N[C@@H](CC(N)=O)C(=O)N2CCC[C@H]2C(=O)N[C@@H](Cc2c[nH]cn2)C(=O)N[C@@H](CC(C)C)C(=O)N(C)CC(=O)N[C@@H](Cc2c[nH]c3ccccc23)C(=O)N[C@@H](CO)C(=O)N[C@@H](Cc2csc3ccccc23)C(=O)N1C
notes: as for B1
Which IC50 does the source give for B7 here?
Its IC50 is 7 nM.

B8: Compound No. 66 (peptide)
peptide: FANPHLGWSWSXRCG
HELM: PEPTIDE1{[O=C(C[*:3])[*:2]].F.[meA].N.P.H.L.[Sar].W.S.W.[meS].[CCCC[C@@H](C(=O)[*:2])N(C)[*:1]].R.C.G.[am]}$PEPTIDE1,PEPTIDE1,1:R3-15:R3$$$V2.0
SMILES: CCCC[C@H]1C(=O)N[C@@H](CCCNC(=N)N)C(=O)N[C@H](C(=O)NCC(N)=O)CSCC(=O)N[C@@H](Cc2ccccc2)C(=O)N(C)[C@@H](C)C(=O)N[C@@H](CC(N)=O)C(=O)N2CCC[C@H]2C(=O)N[C@@H](Cc2c[nH]cn2)C(=O)N[C@@H](CC(C)C)C(=O)N(C)CC(=O)N[C@@H](Cc2c[nH]c3ccccc23)C(=O)N[C@@H](CO)C(=O)N[C@@H](Cc2c[nH]c3ccccc23)C(=O)N(C)[C@@H](CO)C(=O)N1C
notes: as for B1
With B8 as the binder, how does the IC50 read?
The IC50 was 144 nM.

B9: Compound No. 65 (peptide)
peptide: FANPHLGWSWLXRCG
HELM: PEPTIDE1{[O=C(C[*:3])[*:2]].F.[meA].N.P.H.L.[Sar].W.S.W.[meL].[CCCC[C@@H](C(=O)[*:2])N(C)[*:1]].R.C.G.[am]}$PEPTIDE1,PEPTIDE1,1:R3-15:R3$$$V2.0
SMILES: CCCC[C@H]1C(=O)N[C@@H](CCCNC(=N)N)C(=O)N[C@H](C(=O)NCC(N)=O)CSCC(=O)N[C@@H](Cc2ccccc2)C(=O)N(C)[C@@H](C)C(=O)N[C@@H](CC(N)=O)C(=O)N2CCC[C@H]2C(=O)N[C@@H](Cc2c[nH]cn2)C(=O)N[C@@H](CC(C)C)C(=O)N(C)CC(=O)N[C@@H](Cc2c[nH]c3ccccc23)C(=O)N[C@@H](CO)C(=O)N[C@@H](Cc2c[nH]c3ccccc23)C(=O)N(C)[C@@H](CC(C)C)C(=O)N1C
notes: as for B1
B9 was tested. Which IC50 did it give?
The IC50 was 43 nM.

B10: Compound No. 67 (peptide)
peptide: FANPHLGWSWFXRCG
HELM: PEPTIDE1{[O=C(C[*:3])[*:2]].F.[meA].N.P.H.L.[Sar].W.S.W.[meF].[CCCC[C@@H](C(=O)[*:2])N(C)[*:1]].R.C.G.[am]}$PEPTIDE1,PEPTIDE1,1:R3-15:R3$$$V2.0
SMILES: CCCC[C@H]1C(=O)N[C@@H](CCCNC(=N)N)C(=O)N[C@H](C(=O)NCC(N)=O)CSCC(=O)N[C@@H](Cc2ccccc2)C(=O)N(C)[C@@H](C)C(=O)N[C@@H](CC(N)=O)C(=O)N2CCC[C@H]2C(=O)N[C@@H](Cc2c[nH]cn2)C(=O)N[C@@H](CC(C)C)C(=O)N(C)CC(=O)N[C@@H](Cc2c[nH]c3ccccc23)C(=O)N[C@@H](CO)C(=O)N[C@@H](Cc2c[nH]c3ccccc23)C(=O)N(C)[C@@H](Cc2ccccc2)C(=O)N1C
notes: as for B1
Which IC50 does the source give for B10 here?
The IC50 was 108 nM.
